In publication PMC2789238 one finds stoichiometry N and inhibition of Rb C-terminus phosphorylation in the 4 min whole-cell extract with a mixture of Rb and MBP as substrates, with and without p27^kip1 data, which are given here for three substances.

Test [1] deals with ERK1, not dual-phosphorylated (inactive ERK dimer in U0126-inhibited embryos) (L. pictus (endogenous in eggs and embryos)). The test can be described thus: native gel or EMSA; whole-cell extracts of eggs/embryos at times after fertilization (control, or U0126 15 min before fertilisation); non-denaturing gel to maintain ERK as a dimer; Western blot with anti-dual-phosphorylated ERK or anti-ERK antibodies. On the technique in general: A western blot detects proteins with antibodies after separation by electrophoresis.

The target of test [2] is dual-phosphorylated ERK1 (fully activated ERK bis-phosphodimer) (L. pictus (endogenous in eggs and embryos)). The description is as above.
Test [3] concerns the target cdk2 (cyclin-associated kinase activity in sea urchin cell extracts) (L. pictus (endogenous in eggs and embryos)).

For orientation: stoichiometry N means a count of units in the complex or per binding partner. In test [1], “ERK1, not dual-phosphorylated (inactive ERK dimer in U0126-inhibited embryos) (enzyme)” registered a stoichiometry N of 2.
“dual-phosphorylated ERK1 (fully activated ERK bis-phosphodimer) (enzyme)”: the stoichiometry N in test [2] is 2.
Turning to “p27^kip1 recombinant protein (from UniProt P46414 1-197) (natural protein)”, the inhibition of Rb C-terminus phosphorylation in the 4 min whole-cell extract with a mixture of Rb and MBP as substrates, with and without p27^kip1 in test [3] was determined as 97%.
